Experimental data published in patent EP4628095A1 (Xiamen University, dated 2025).

What was measured:
[1] = target: T1, P1-5B-RBD (mammalian cell expression system); assay: SPR (Biacore 8K), HEV-p239 coupled to CM5 chip (Fig. 10B)
T1 construct: also called VHH-RBD

[2] = target: T2, P2-5C-RBD (mammalian cell expression system); assay: as above
T2 construct: also called VHH-RBD

[3] = target: T3, P2-3A-RBD (mammalian cell expression system); assay: as above
T3 construct: also called VHH-RBD

[4] = target: T4, P2-2C-RBD (mammalian cell expression system); assay: as above
T4 construct: also called VHH-RBD

[5] = target: T5, P2-3E-RBD (mammalian cell expression system); assay: as above
T5 construct: also called VHH-RBD

[6] = target: T6, P2-3E-RBD (insect cell expression system); assay: SPR (Biacore 8K), HEV-p239 coupled to CM5 chip (Fig. 10A)
T6 construct: also called VHH-RBD

[7] = target: T7, P2-3D-RBD (insect cell expression system); assay: as above
T7 construct: also called VHH-RBD

[8] = target: T8, P1-5B-RBD (insect cell expression system); assay: as above
T8 construct: also called VHH-RBD; P1-5B-RBD fusion protein

[9] = target: T9, P2-3A-RBD (insect cell expression system); assay: as above
T9 construct: also called VHH-RBD

Measured: binding result

B1: HEV-p239 protein (other)
chain: IALTLFNLADTLLGGLPTELISSAGGQLFYSRPVVSANGEPTVKLYTSVENAQQDKGIAIPHDIDLGESRVVIQDYDNQHEQDRPTPSPAPSRPFSVLRANDVLWLSLTAAEYDQSTYGSSTGPVYVSDSVTLVNVATGAQAVARSLDWTKVTLDGRPLSTIQQYSKTFFVLPLRGKLSFWEAGTTKAGYPYNYNTTASDQLLVENAAGHRVAISTYTTSLGAGPVSISAVAVLAPHSV
notes: also called HEV-p239 particles; HEV particles
binds: all assays above
